Experimental data from the supplement of paper PMC9170038.

System: MS2 coat protein
Assay: apparent KD of MS2 coat protein; designed switch direction (-1 OFF switch, 1 ON switch): 1; higher = weaker reporter binding
Outline: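 The buffer was Tris-HCl pH 7.5 with KCl, MgCl2, BSA, DTT, tRNA and Tween-20. In it, SNAP-549-labelled MS2 coat protein was titrated in doubling steps from 0.7 or 1.5 nM to 3 µM over chip-bound RNA switches transcribed by stalled E. coli RNA polymerase on Illumina chips. Apparent KD is the per-design median over clusters of curve fits to normalised fluorescence.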

[1] = input ligand: microRNA oligo, concentration not stated
[2] = Eterna round: R95, input ligand: FMN 200 uM
[3] = Eterna round: R95, input ligand: microRNA oligo, concentration not stated
[4] = Eterna round: R95, input ligand: none

Sequence: GCCAUCGUAUGAGGAUAUGGCACCGAAACGGUGCCAGAAGGCAUGUCAAUAGACAUGAGGAUCACCCAUGUAUUAUCGAUGGCA [Mat - Same State NG 1 - JL mod - D90] (Eterna round: R96, puzzle: Same State NG 1)
- apparent KD of MS2 coat protein [1]: 278 nM

Sequence: AGCAAUCUAUCUCAGGAUAUCAUGUCAAAGACAUGAGGAUCACCCAUGUACCAGGAAACUGGUUAUGAGAAGGGAGAUAGAUUGA [Mat - Same State 2 - Mod - D29] (puzzle: Same State 2)
- apparent KD of MS2 coat protein [2]: 154 nM
- apparent KD of MS2 coat protein [3]: 52.2 nM
- apparent KD of MS2 coat protein [4]: 177 nM

Sequence: UGCUAUAGUAUAUUGGUGCAAGCUUUUUGACAUGAGGAUCACCCAUGUACUCGUCUUAAGCGCAGUCCGUAGACUGC (puzzle: Sensor for hsa-mir-208a)
- apparent KD of MS2 coat protein [2]: 84.5 nM
- apparent KD of MS2 coat protein [3]: 13.8 nM
- apparent KD of MS2 coat protein [4]: 89.9 nM

Sequence: AUUUUUAAUGCAGGAUAUGAUUAACAUGAGGAUCACCCAUGUGGUGUUGUGAGUAAGGAGAGUGAUCAGAAGGGCAUUUUUUGU [JMF's solution 87] (Eterna round: R96, puzzle: Same State NG 2)
- apparent KD of MS2 coat protein (input ligand: FMN 200 uM): 827 nM
- apparent KD of MS2 coat protein [1]: 301 nM
- apparent KD of MS2 coat protein (input ligand: none): 621 nM

Sequence: AGUCCAGCCUGAGCUGGACAAAAGCAUGUACAUGAGGAUCACCCAUGUUCAUGUACAAGCUUUUUGCUCGUCUUACU [salish99_208a_r3_077] (puzzle: Sensor for hsa-mir-208a)
- apparent KD of MS2 coat protein [2]: 618 nM
- apparent KD of MS2 coat protein [3]: 14.6 nM
- apparent KD of MS2 coat protein [4]: 635 nM

Sequence: UAAAGCAAGUCAGGAUAUGGGAAAGGAAGUGUACUAGAAGGGACUUGUAGGAACAUGAGGAUCACCCAUGUACCGCGGACUAAA [PowerStrip SSNG 1.7] (Eterna round: R96, puzzle: Same State NG 1)
- apparent KD of MS2 coat protein (input ligand: FMN 200 uM): 31.7 nM
- apparent KD of MS2 coat protein [1]: 42.6 nM
- apparent KD of MS2 coat protein (input ligand: none): 47.8 nM

Sequence: ACCCGAAGUAUAUGGGAACAAGCUUUUUAACAUGAGGAUCACCCAUGUACUCGUCUUAUAAGCAGUCGAAAGACUGC [Sensor 100 - 5] (puzzle: Sensor for hsa-mir-208a)
- apparent KD of MS2 coat protein [2]: 21.7 nM
- apparent KD of MS2 coat protein [3]: 17.3 nM
- apparent KD of MS2 coat protein [4]: 44.5 nM

Sequence: GCCAUCCAGUGAGGAUAUGGCACCGAAACGGUGCCAGAAGGCAUGUCAAUUGACAUGAGGAUCACCCAUGUAUUAUGGAUGGCA [Mat - Same State NG 1 - JL mod - D85] (Eterna round: R96, puzzle: Same State NG 1)
- apparent KD of MS2 coat protein (input ligand: FMN 200 uM): 102 nM
- apparent KD of MS2 coat protein [1]: 694 nM
- apparent KD of MS2 coat protein (input ligand: none): 695 nM

Sequence: AAACACAUGAGGAUCACCCAUGUAGCGCCAUUGAGGCGCACAUAGGAUAUCCGGUCCAAAAGACCGGAGAAGGGUGAAAGAAAA [Soesen] (Eterna round: R96, puzzle: Same State NG 3)
- apparent KD of MS2 coat protein (input ligand: FMN 200 uM): 125 nM
- apparent KD of MS2 coat protein [1]: 166 nM
- apparent KD of MS2 coat protein (input ligand: none): 146 nM

Sequence: CUCCCAUGUGCACAGGAUAUGCCGGGAUGCACAUGAGGAUCACCCAUGUAAUCCUGAAAAUAAAAGCAGAAGGGUGAUCAUGGGU [Teriqula] (puzzle: Same State 2)
- apparent KD of MS2 coat protein [2]: 7.24 nM
- apparent KD of MS2 coat protein [3]: 16.5 nM
- apparent KD of MS2 coat protein [4]: 13.2 nM

Sequence: AAACUCGUUGAAGGAUAUCCGGCAGCUAACAAACCGUAACAUGAGGAUCACCCAUGUGUUAGAAAGGAGAAGGUCAGUGACCGG [Eternabot solution 34] (Eterna round: R96, puzzle: Same State NG 2)
- apparent KD of MS2 coat protein (input ligand: FMN 200 uM): 17.2 nM
- apparent KD of MS2 coat protein [1]: 15.9 nM
- apparent KD of MS2 coat protein (input ligand: none): 22.3 nM

Sequence: AGCUAUCGAAAACGAUAGCAAAAGCAUGUACAUGAGGAUCACCCAUGUCAUGUACAAGUUUUUUGCUCGUCUUAAAA [Zipper 23 - 13] (puzzle: Sensor for hsa-mir-208a)
- apparent KD of MS2 coat protein [2]: 107 nM
- apparent KD of MS2 coat protein [3]: 13.1 nM
- apparent KD of MS2 coat protein [4]: 121 nM

Sequence: UCUGCAUGAACAGGAUAUGGGUUCAGAGCGGGAGUGCGCUUUGACACAUGAGGAUCACCCAUGUCCCAGAAGGGUUCAAGCGGC [Rianbein] (Eterna round: R96, puzzle: Same State NG 2)
- apparent KD of MS2 coat protein (input ligand: FMN 200 uM): 47.7 nM
- apparent KD of MS2 coat protein [1]: 219 nM
- apparent KD of MS2 coat protein (input ligand: none): 430 nM

Sequence: UAAACUUCUUUUAGUGUAAUGCAAGUGAAACAUGAGGAUCACCCAUGUAAAGGAUCGUGAUAUUUUGUUCGUCUUAA [JR_SHM208A_Sub076] (puzzle: Sensor for hsa-mir-208a)
- apparent KD of MS2 coat protein [2]: 57.2 nM
- apparent KD of MS2 coat protein [3]: 32.5 nM
- apparent KD of MS2 coat protein [4]: 83 nM

Sequence: AGCUUACAUGAGGAUCACCCAUGUUUUAGCCAGACAGGAUAUGGGUAUCUAAAACACAACCCAGAAGGGUCAAAAC [Usveriri] (puzzle: Same State 1)
- apparent KD of MS2 coat protein [2]: 57.5 nM
- apparent KD of MS2 coat protein [3]: 233 nM
- apparent KD of MS2 coat protein [4]: 489 nM

Sequence: ACAUGAGAGAUAGGAUAUCGUGUACCUACAUGUGACAUGAGGAUCACCCAUGUGGUAAGUAUGAGCGAGAAGGAUCAGAUAUGU [Equivalence 50 - Jieux - Same State NG 2] (Eterna round: R96, puzzle: Same State NG 2)
- apparent KD of MS2 coat protein (input ligand: FMN 200 uM): 24.6 nM
- apparent KD of MS2 coat protein [1]: 43.1 nM
- apparent KD of MS2 coat protein (input ligand: none): 78.4 nM

Sequence: AGUGCAGCCUGAGCUGCACAAAAGCAUGUACAUGAGGAUCACCCAUGUCAUGUACAAGCUUUUUGCUCGUCUUAAAA [Mat - hsa-mir-208a - Mod of JL - D20] (puzzle: Sensor for hsa-mir-208a)
- apparent KD of MS2 coat protein [2]: 529 nM
- apparent KD of MS2 coat protein [3]: 15.4 nM
- apparent KD of MS2 coat protein [4]: 688 nM

Sequence: AUAUGAGGAGCAGGAUAUGCGGAGAAGAAAGAAGCAGAAGGGCUCAUGGGACAACAUGAGGAUCACCCAUGUUCUCCGCGAUGA [AK SSNG1-V2-3.2] (Eterna round: R96, puzzle: Same State NG 1)
- apparent KD of MS2 coat protein (input ligand: FMN 200 uM): 80.2 nM
- apparent KD of MS2 coat protein [1]: 298 nM
- apparent KD of MS2 coat protein (input ligand: none): 523 nM

Sequence: CAGCGCUGUUGAGAGGAUAUGCGGUGAUGGACAUGAGGAUCACCCAUGUUAGCGACAGCAUUACGGCAGAAGGCUUCACAGCUGC [Soteed Omei mod 17] (Eterna round: R96, puzzle: Same State 2)
- apparent KD of MS2 coat protein (input ligand: FMN 200 uM): 13.9 nM
- apparent KD of MS2 coat protein [1]: 36.9 nM
- apparent KD of MS2 coat protein (input ligand: none): 47.1 nM

Sequence: UGGCUCAGACGAGGAUAUGAUCAUGGCGCUUCGGCGCAUACAUGAGGAUCACCCAUGUAGGGUGAUCAGAAGGUGUCUGAGCCA [SSNG2/8-B2] (Eterna round: R96, puzzle: Same State NG 2)
- apparent KD of MS2 coat protein (input ligand: FMN 200 uM): 90.9 nM
- apparent KD of MS2 coat protein [1]: 578 nM
- apparent KD of MS2 coat protein (input ligand: none): 1000 nM

Sequence: UUAAUGAAGUAAGGAUAUACAUGAGGAUUUCUCGUAGAAGGUACUAUACAUGAGGAUCACCCAUGUGCCGGUCAGAAGACUGGA [Mat - Same State NG 1 - JL mod - D10] (Eterna round: R96, puzzle: Same State NG 1)
- apparent KD of MS2 coat protein [1]: 301 nM

Sequence: UAACAGUACAAUUUAGAUCUACAUGAGGAUCACCCAUGUACUGAGGAUAUCAGCUCGUGUAGAGCUGAGAAGGCAGAAGAACUA [SSNG3/11-A4] (Eterna round: R96, puzzle: Same State NG 3)
- apparent KD of MS2 coat protein (input ligand: FMN 200 uM): 38.1 nM
- apparent KD of MS2 coat protein [1]: 93.4 nM
- apparent KD of MS2 coat protein (input ligand: none): 173 nM

Sequence: ACAUGAGACCAAGGAUAUUUUGUACCUACAUGUGACAUGAGGAUCACCCAUGUGGUAAGUAUGAGGGAGAAGGUGGAGAUAUGU [Equivalence 24 - Jieux - Same State NG 2] (Eterna round: R96, puzzle: Same State NG 2)
- apparent KD of MS2 coat protein (input ligand: FMN 200 uM): 54.3 nM
- apparent KD of MS2 coat protein [1]: 48.7 nM
- apparent KD of MS2 coat protein (input ligand: none): 73.7 nM

Sequence: GGAGCCGGCCUAGGAUAUUUCAUAUUUAAACAUGAGGAUCACCCAUGUAGGCCAGAAGGCCUUGGGAAGAAGGAGGUCGGCUCC [Loop Effect - U25,U26,U27] (Eterna round: R96, puzzle: Same State NG 2)
- apparent KD of MS2 coat protein [1]: 57.4 nM

Sequence: UGGCUGAGUCGAGGAUAUGAUCUUCAUAUAUAUACAUGAGGAUCACCCAUGUAUAAUUACAUGGAUCAGAAGGCGACUCAGCCU [SSNG2/13-A2] (Eterna round: R96, puzzle: Same State NG 2)
- apparent KD of MS2 coat protein [1]: 23 nM

Sequence: ACAUGAGGAUCACCCAUGUAUGCUCAGGAAACUGUGCAGCAUUAGGAUAUGGAUCCUAAUUGGAUCCAGAAGGAGUGAAUUAUU [Fiskers NG3ss - 26] (Eterna round: R96, puzzle: Same State NG 3)
- apparent KD of MS2 coat protein (input ligand: FMN 200 uM): 82.2 nM
- apparent KD of MS2 coat protein [1]: 117 nM
- apparent KD of MS2 coat protein (input ligand: none): 126 nM

Sequence: GGAGGACAUGAGGAUCACCCAUGUGGAUGGGCGCUAGGAUAUGCGUGCGGGAAGAGUGGAGCAGAAGGAGUGGGUU [JR_SS1_Sub045] (Eterna round: R96, puzzle: Same State 1)
- apparent KD of MS2 coat protein (input ligand: FMN 200 uM): 66.8 nM
- apparent KD of MS2 coat protein [1]: 41.9 nM
- apparent KD of MS2 coat protein (input ligand: none): 55.6 nM

Sequence: GGUGCCAAUAAAGCCUACAUGAGGAUCACCCAUGUAUGUAGGCAGGAUAUCGUUUGCAAAGCAAACGAGAAGGGCCUAGGCACC [Mat - Same State NG 3 - JL Mod - D61] (Eterna round: R96, puzzle: Same State NG 3)
- apparent KD of MS2 coat protein (input ligand: FMN 200 uM): 18.6 nM
- apparent KD of MS2 coat protein [1]: 21.4 nM
- apparent KD of MS2 coat protein (input ligand: none): 31.5 nM

Sequence: GGUCCAGCCUGAGCUGGACAAAAGCAUGUACAUGAGGAUCACCCAUGUUAUGUACAAGCUUUUUGCUCGUCUUAAAA [JL mod - D87 - 10] (Eterna round: R96, puzzle: Sensor for hsa-mir-208a)
- apparent KD of MS2 coat protein (input ligand: FMN 200 uM): 183 nM
- apparent KD of MS2 coat protein [1]: 12.2 nM
- apparent KD of MS2 coat protein (input ligand: none): 188 nM

Sequence: GUCGGGCAAGCUUUUUUCUCGUAGUGUAAACAUGAGGAUCACCCAUGUGCUCGCCCUGGAUCUUUGGAUCGCAGAAA [Isxevevere] (puzzle: Sensor for hsa-mir-208a)
- apparent KD of MS2 coat protein [2]: 57.5 nM
- apparent KD of MS2 coat protein [3]: 34.9 nM
- apparent KD of MS2 coat protein [4]: 64.5 nM

Sequence: UUCUCAUUUACAUGAGGAUCACCCAUGUUUUUUUGUAGGAAAUAGGAUAUAGGUCUCUCGUUUUACUAGAAGGAUUUCCUUAUU [JR_SSNG3_Sub090] (Eterna round: R96, puzzle: Same State NG 3)
- apparent KD of MS2 coat protein (input ligand: FMN 200 uM): 51.5 nM
- apparent KD of MS2 coat protein [1]: 38 nM
- apparent KD of MS2 coat protein (input ligand: none): 48.5 nM
